# US20240336664A1, “SULFATED POLYPEPTIDES FOR SYSTEMIC DELIVERY” (priority 2021, published 2024)
# B1: SEQ ID NO: 3: promoter nucleic acid sequence driving a luciferase expression construct in muscle cells (nucleic acid)
# DNA: CAGGCCCTGTAACTTTTCCAATAAAATATTCTATTAGAAACAAGTTCCTTCTAGATCTTCCTAAAAGAATACTAAAGGACCAAACCGTGCAACAGCACTGGTGGTATTGTCTTAATTTAGAGAGTCCATACCAGTGATTCTCAAACATTAGTATGCTCAGAGTTTCTGGTTCAATAGGTCTGGGCCGGGCCCAGGGAATTTTCATTTCTAAGAAGTTCGCAGGTGATACTGATAACTGCTGTTCCCAGGGTCTACATTTTGAGATCCGCTGCTATGTCACAAATCCAAATCCAAAGTCTTTTTAACAATCCCTTTTAGCCCAGGATGAGCCTAACGGCAATTTCACGTCCTTATCGCCGGCCACTTTAATCTTCAACTGAGGAGGAAGGGAGAGTGAGAATTATGTATATAATTTTTTTCTTTTATTTTTTAAAAAGAAAACTCCAAGCCCACACTCTTAATTATCTGGGATGAGGTCATTTGCACCTGGGTCATTTATTTAGACAACAAGTAGTCTTGCTAGAGGCTTTAAGGAGGTGTTAGCAGAGCGGTGTGTGGCTTCCAGGTTCCTGGGTCTACCTTAAATCCCCATCCTCTTTCTTTCTTTCTTTCTTTCTTTCTTTCTCTTTTCTTTTTCCTTTCCGTTTTGAAAGCCCCAACTGCCCAGTCTCTGGGTGTCCGGGTTCCCAGGTCCCTAGGTGGGGGCGGAGCCCGACACGGCCCCGCCCCGTCTGCCCGCAGCGCCCCCTCCCCGGCCCGCCCGCGCCGGCTCCTCCGCAGTGCTTTCAGCTGTGAGCTTGGGCGGCGGCGGCGGCGGCGCTCCACTTTCGGGGAGCCCGGCGGCTCTGGGAAGCTCACTCCTCCACTCGTACCCACACTCGACCGCGGAGCCCTTGCAGCCATGAGGGAACAGCTCAAAGGGTAAGTGGA
# System: C2C12 mouse myoblasts
# Experiment: Luciferase reporter expression from muscle promoters
# Assay type: cell-based
# Conditions: 48 hours post transfection, FIG. 6
# Description: The present Example includes the recognition that certain promoters utilized herein have advantageous characteristics for expression of operably linked coding sequences in muscle cells, as exemplified in the present Example in C2C12 mouse myoblasts as a representative muscle cell type. In the present Example, a luciferase reporter construct was expressed in C2C12 mouse myoblasts using each of three promoters. Cells were mock transfected or transfected with vectors expressing luciferase using Lipofectamine LTS Plus reagent in a 96-well plate. 48 hours post transfection luciferase activity was measured using ONE-Glo™ Luciferase Assay System (E6110, Promega).
molecule,measurement,value
B1,luciferase expression vs promoters SEQ ID NO: 4 and SEQ ID NO: 5 and mock,substantially greater expression
